Series [1] is described as follows: Serum hydrolysis of hK2 substrates. Particulars: 50% fresh human serum in 50 mM Tris, 0.1 M NaCl, pH 7.8. It counts as in vitro ADME. The method, then: (§1) Hydrolyses of particular hK2 substrates were carried out at a hK2 concentrations of 1 μg/ml in 50 mM Tris buffer, with 0.1 M NaCl, at pH 7.8. Serum hydrolysis measurements were carried out in 50% fresh human serum in 50 mM Tris buffer, with 0.1 M NaCl, at pH 7.8. The single letter amino acid code was used to designate the peptide sequences used for Table 4. The units FU are arbitrary fluorescence units. The entries “U.D.” were for measurements of less than 0.01 FU/hour.

Series [2] deals with T1, hK2 (Homo sapiens, UniProt P20151).
T1 construct: made in house
The experiment in a line: Hydrolysis of hK2 substrates by hK2. It counts as biochemical. Particulars: hK2 1 μg/ml, 50 mM Tris, 0.1 M NaCl, pH 7.8. As for the experimental part: as §1

The results in this text go back to patent US8450280B2, “Activation of peptide prodrugs by hK2” (GenbSpera, Inc., priority 1999, dated 2013).

Non-standard residues stand in square brackets, D forms with d. No end group written: not given here.

T1 sequence (P20151 25-261): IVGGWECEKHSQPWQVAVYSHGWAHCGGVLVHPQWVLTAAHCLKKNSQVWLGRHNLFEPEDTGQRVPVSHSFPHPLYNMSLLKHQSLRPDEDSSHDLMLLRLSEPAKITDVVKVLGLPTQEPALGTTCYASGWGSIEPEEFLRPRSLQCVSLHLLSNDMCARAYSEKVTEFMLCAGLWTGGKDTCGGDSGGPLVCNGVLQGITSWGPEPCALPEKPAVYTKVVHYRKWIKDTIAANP

In the case of “SEQ ID NO: 114: hK2 substrate peptide, single letter sequence P6-P′1 (GGKAHRL; listed as Homo sapiens)”, the “Serum Hydrolysis Rate” value in series [1] (Table 5) is listed as 0.10 FU/hr. Moreover, in series [2] (Table 5), the “hK2 Hydrolysis Rate” value is listed as 1287.4 FU/hr/m.
On to “SEQ ID NO: 66: hK2 substrate peptide, single letter sequence P7-P′1 (GHEQKRRL; listed as Homo sapiens)”, for which the “Serum Hydrolysis Rate” value in series [1] (Table 4) was 0.17 FU/hr; in series [1] (Table 5), “UD (The entries “U.D.” were for measurements of less than 0.01 FU/hour)”. In addition, the “hK2 Hydrolysis Rate” value in series [2] (Table 4) was determined as 5966.31 FU/hr/m; in series [2] (Table 5) it was 3366.5 FU/hr/m.
“SEQ ID NO: 84: hK2 substrate peptide, single letter sequence P7-P′1 (GSYEERHL; listed as Homo sapiens)”: the “Serum Hydrolysis Rate” value in series [1] (Table 4) was found to be 0.09 FU/hr. Also, the “hK2 Hydrolysis Rate” value in series [2] (Table 4) is listed as 42.87 FU/hr/m.
The matching figures for “SEQ ID NO: 85: hK2 substrate peptide, single letter sequence P7-P′1 (GKDVSGHL; listed as Homo sapiens)”: 0.05 FU/hr and 67.55 FU/hr/m.
As for “SEQ ID NO: 71: hK2 substrate peptide, single letter sequence P7-P′1 (GSKGHRRL; listed as Homo sapiens)”, in series [1] (Table 4), the “Serum Hydrolysis Rate” value is listed as “UD (The entries “U.D.” were for measurements of less than 0.01 FU/hour)”. In addition, the “hK2 Hydrolysis Rate” value in series [2] (Table 4) is reported as 2649.96 FU/hr/m.
In the case of “SEQ ID NO: 116: hK2 substrate peptide, single letter sequence P6-P′1 (GGKARQL; listed as Homo sapiens)”, the “Serum Hydrolysis Rate” value in series [1] (Table 5) came to 0.13 FU/hr. In series [2] (Table 5), the “hK2 Hydrolysis Rate” value is on record as 1021.9 FU/hr/m.
On to “SEQ ID NO: 81: hK2 substrate peptide, single letter sequence P7-P′1 (GSKGHFHL; listed as Homo sapiens)”, for which the “Serum Hydrolysis Rate” value in series [1] (Table 4) amounted to 0.10 FU/hr. Also, the “hK2 Hydrolysis Rate” value in series [2] (Table 4) was 171.47 FU/hr/m.
In the case of “SEQ ID NO: 120: hK2 substrate peptide, single letter sequence P6-P′1 (GGKAKKL; listed as Homo sapiens)”, the “Serum Hydrolysis Rate” value in series [1] (Table 5) is on record as “UD (The entries “U.D.” were for measurements of less than 0.01 FU/hour)”. The “hK2 Hydrolysis Rate” value in series [2] (Table 5) came out at 77.9 FU/hr/m.
Turning to “SEQ ID NO: 68: hK2 substrate peptide, single letter sequence P7-P′1 (GGGKAHRL; listed as Homo sapiens)”, the “Serum Hydrolysis Rate” value in series [1] (Table 4) is on record as 0.09 FU/hr. In series [2] (Table 4), the “hK2 Hydrolysis Rate” value came to 4100.94 FU/hr/m.
In the case of “SEQ ID NO: 88: hK2 substrate peptide, single letter sequence P7-P′1 (GPAHQDRL; listed as Homo sapiens)”, the “Serum Hydrolysis Rate” value in series [1] (Table 4) came out at 0.06 FU/hr. Also, the “hK2 Hydrolysis Rate” value in series [2] (Table 4) is 75.34 FU/hr/m.
As to “SEQ ID NO: 100: hK2 substrate peptide, single letter sequence P6-P′1 (GGKKRRL; listed as Homo sapiens)”, the “Serum Hydrolysis Rate” value in series [1] (Table 5) is recorded as “UD (The entries “U.D.” were for measurements of less than 0.01 FU/hour)”. Further, the “hK2 Hydrolysis Rate” value in series [2] (Table 5) stood at 2583.0 FU/hr/m.
With “SEQ ID NO: 123: hK2 substrate peptide, single letter sequence P6-P′1, dR at P2 and P1 (GGKA[dR][dR]L; listed as Homo sapiens)”, in series [1] (Table 5), the “Serum Hydrolysis Rate” value is recorded as “UD (The entries “U.D.” were for measurements of less than 0.01 FU/hour)”. In addition, the “hK2 Hydrolysis Rate” value in series [2] (Table 5) was determined as 16.5 FU/hr/m.
Consider “SEQ ID NO: 77: hK2 substrate peptide, single letter sequence P7-P′1 (GSNTERRL; listed as Homo sapiens)”, for which the “Serum Hydrolysis Rate” value in series [1] (Table 4) is “UD (The entries “U.D.” were for measurements of less than 0.01 FU/hour)”. Further, the “hK2 Hydrolysis Rate” value in series [2] (Table 4) stood at 592.34 FU/hr/m.
For “SEQ ID NO: 104: hK2 substrate peptide, single letter sequence P6-P′1 (GGKAQRL; listed as Homo sapiens)”, the “Serum Hydrolysis Rate” value in series [1] (Table 5) was determined as 0.04 FU/hr. For the same substance, the “hK2 Hydrolysis Rate” value in series [2] (Table 5) is 2233.7 FU/hr/m.
